Laboratory results published in patent publication US7667021 (dated 2010).

What was measured:
[1] = biological target: IGFR1 (human); experiment: SPR, 25C
[2] = biological target: IGFR1 (human); experiment: SPR, 37C

IGFR1 (human), sequence (B1B5Y2 whole entry): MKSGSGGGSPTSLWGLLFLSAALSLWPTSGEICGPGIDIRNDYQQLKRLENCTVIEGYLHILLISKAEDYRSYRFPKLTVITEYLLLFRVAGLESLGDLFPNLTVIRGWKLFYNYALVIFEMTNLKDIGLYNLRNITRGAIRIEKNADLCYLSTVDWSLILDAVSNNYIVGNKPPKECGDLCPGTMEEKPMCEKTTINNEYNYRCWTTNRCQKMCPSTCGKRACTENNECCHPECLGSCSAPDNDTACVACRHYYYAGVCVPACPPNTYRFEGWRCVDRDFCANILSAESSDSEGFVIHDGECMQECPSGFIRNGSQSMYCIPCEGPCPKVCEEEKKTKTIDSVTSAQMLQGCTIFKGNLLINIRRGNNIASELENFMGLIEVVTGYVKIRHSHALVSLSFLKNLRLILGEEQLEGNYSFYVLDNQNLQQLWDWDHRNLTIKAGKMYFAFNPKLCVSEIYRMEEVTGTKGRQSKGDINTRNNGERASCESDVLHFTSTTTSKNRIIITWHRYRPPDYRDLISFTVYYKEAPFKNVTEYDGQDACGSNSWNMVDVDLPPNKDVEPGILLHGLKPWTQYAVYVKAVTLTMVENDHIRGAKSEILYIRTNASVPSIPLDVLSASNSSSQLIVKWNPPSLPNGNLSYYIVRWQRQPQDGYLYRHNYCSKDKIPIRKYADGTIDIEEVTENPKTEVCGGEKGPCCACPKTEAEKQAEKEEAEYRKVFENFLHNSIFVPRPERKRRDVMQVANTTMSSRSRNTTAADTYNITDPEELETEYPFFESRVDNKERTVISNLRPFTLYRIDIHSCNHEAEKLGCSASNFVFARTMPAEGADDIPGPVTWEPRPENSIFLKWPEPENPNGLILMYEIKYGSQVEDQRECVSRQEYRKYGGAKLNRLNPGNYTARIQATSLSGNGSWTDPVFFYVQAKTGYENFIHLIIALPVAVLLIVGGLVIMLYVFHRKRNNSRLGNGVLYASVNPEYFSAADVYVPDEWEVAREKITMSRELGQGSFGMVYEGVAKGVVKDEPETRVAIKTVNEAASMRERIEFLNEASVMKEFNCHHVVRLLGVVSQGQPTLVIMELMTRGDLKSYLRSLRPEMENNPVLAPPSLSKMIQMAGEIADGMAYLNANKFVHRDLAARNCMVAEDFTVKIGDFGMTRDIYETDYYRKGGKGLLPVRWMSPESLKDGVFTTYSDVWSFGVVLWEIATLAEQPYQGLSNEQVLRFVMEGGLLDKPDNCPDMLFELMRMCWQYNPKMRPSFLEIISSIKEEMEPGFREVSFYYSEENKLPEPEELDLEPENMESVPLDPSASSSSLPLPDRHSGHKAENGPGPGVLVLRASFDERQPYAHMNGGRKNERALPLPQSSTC

B1: 19D12 (antibody, V domains shown)
VH: EVQLVQSGGGLVHPGGSLRLSCAASGFTFSSFAMHWVRQAPGKGLEWISVIDTRGATYYADSVKGRFTISRDNAKNSLYLQMNSLRAEDMAVYYCARLGNFYYGMDVWGQGTTVTVSS
VL: EIVLTQVPDFQSVTPKEKVTITCRASQSIGSSLHWYQQKPDQSPKLLIKYASQSLSGVPSRFSGSGSGTDFTLTINSLEAEDAAAYYCHQSSRLPHTFGGGTKVEIKR
[1]
  Kd: 59.2 pM
[2]
  Kd: 72.2 pM

B2: 15H12 (antibody, V domains shown)
VH: B1 VH
VL: B1 VL
[1]
  Kd: 44.8 pM
[2]
  Kd: 55.7 pM

B3: 1H3 (antibody, V domains shown)
VH: EVQLVQSGGGLVLPGGSLRLSCAGSGFTFSNYAMHWIRQAPGKGLEWVSAIGAGGDTYYADSVKGRFTISRDNAKDSLYLQMNSLRAEDMAVYYCARGRHRNWYYYNKDYWGQGTLVTVSS
VL: EIVLTQSPATLSLSPGERATLSCRASQSVSSFLAWYQQKPGQAPRLLIYDASNRAPGIPARFSGSGSGTDFTLTISSLEPEDFAVYYCQQRSNWPRWTFGQGTKVEIKR
[1]
  Kd: 860 pM
